Tests used:
Assay in all cases: proximity ligation; Duolink PLA between two endogenous proteins in polarized bEnd3 monolayers, fixed in 4% PFA and permeabilized with 0.1% Triton X-100; two primary antibodies overnight at 4°C; PLA signal normalized by the number of nuclei; also in shRNA control (scramble) and syndapin-2 knockdown cells, and after FAM-Aβ (1–40) or Aβ monomers, oligomers or fibrils for 15 min
[1] = biological target: Rab5 (mouse (endogenous in bEnd3)) (UniProt Q9CQD1)
[2] = biological target: Rab11 (mouse (endogenous in bEnd3)) (UniProt P62492)
[3] = biological target: Rab7 (mouse (endogenous in bEnd3)) (UniProt P51150)
Sequence of Rab7 (mouse (endogenous in bEnd3)) (P51150 whole entry): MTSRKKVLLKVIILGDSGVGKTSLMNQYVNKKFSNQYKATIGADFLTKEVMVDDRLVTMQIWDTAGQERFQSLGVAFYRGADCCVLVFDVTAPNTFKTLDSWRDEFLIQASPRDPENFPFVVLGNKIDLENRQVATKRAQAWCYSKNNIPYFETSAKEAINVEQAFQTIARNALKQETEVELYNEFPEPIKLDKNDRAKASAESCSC

Sequence of syndapin-2 (Q9WVE8 whole entry): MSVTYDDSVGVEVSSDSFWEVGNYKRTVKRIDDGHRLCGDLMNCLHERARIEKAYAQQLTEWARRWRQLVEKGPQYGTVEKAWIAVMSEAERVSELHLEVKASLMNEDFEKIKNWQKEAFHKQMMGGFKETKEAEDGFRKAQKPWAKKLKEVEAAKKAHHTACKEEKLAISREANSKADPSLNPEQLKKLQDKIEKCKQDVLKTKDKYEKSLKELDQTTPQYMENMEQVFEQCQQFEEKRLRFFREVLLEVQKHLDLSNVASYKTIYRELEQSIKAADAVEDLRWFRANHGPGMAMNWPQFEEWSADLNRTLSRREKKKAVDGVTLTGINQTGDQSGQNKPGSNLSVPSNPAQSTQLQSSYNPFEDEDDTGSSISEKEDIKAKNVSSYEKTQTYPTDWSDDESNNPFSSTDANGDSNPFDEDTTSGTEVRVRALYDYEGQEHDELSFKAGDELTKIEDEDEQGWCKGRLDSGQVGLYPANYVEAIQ
Sequence of Rab5 (mouse (endogenous in bEnd3)) (Q9CQD1 whole entry): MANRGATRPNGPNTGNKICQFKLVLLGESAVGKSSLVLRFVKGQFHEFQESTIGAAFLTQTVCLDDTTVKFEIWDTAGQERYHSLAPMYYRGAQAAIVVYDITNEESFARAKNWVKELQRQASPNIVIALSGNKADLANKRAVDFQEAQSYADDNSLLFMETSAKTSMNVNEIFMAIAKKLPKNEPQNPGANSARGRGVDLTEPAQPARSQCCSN
Sequence of Rab11 (mouse (endogenous in bEnd3)) (P62492 whole entry): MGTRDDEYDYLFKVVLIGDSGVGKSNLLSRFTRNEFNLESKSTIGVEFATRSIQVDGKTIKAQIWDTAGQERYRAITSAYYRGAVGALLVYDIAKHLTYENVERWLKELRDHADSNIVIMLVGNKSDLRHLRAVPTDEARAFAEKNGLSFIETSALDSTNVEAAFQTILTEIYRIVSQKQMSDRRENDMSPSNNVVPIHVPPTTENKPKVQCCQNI

- PLA dots per cell (dots per cell) [1]: < 20
- PLA dots per cell (dots per cell) [2]: < 20
- PLA dots per cell (dots per cell) [3]: < 20
Substance: syndapin-2 (from UniProt Q9WVE8 1-486) (natural protein)
